Laboratory results as given in paper PMC10772716.

Tests used:
Assay in all cases: SEC-MALS
[1] = biological target: cMyBP-C C3C6 domains, N755K variant (human) (UniProt Q14896)
[2] = biological target: cMyBP-C C3C6 domains, R820Q variant (human) (UniProt Q14896)
[3] = biological target: cMyBP-C C3C6 domains, E542Q variant (human) (UniProt Q14896)

cMyBP-C C3C6 domains, N755K variant (from UniProt Q14896 1-1274) (domain or fragment)
stoichiometry N [1]: 2

cMyBP-C C3C6 domains, R820Q variant (from UniProt Q14896 1-1274) (domain or fragment)
stoichiometry N [2]: 2

cMyBP-C C3C6 domains, E542Q variant (from UniProt Q14896 1-1274) (domain or fragment)
stoichiometry N [3]: 2
